The source of these data is patent US20240270821A1, “GIP/GLP1/GCG TRI-RECEPTOR AGONISTS AND USES THEREOF” (priority 2023, published 2024).

Assay in all cases: cell-based or functional assay
Experiment [1] addresses T1, human GIP receptor (human) (UniProt P48546).
T1 sequence (looked up): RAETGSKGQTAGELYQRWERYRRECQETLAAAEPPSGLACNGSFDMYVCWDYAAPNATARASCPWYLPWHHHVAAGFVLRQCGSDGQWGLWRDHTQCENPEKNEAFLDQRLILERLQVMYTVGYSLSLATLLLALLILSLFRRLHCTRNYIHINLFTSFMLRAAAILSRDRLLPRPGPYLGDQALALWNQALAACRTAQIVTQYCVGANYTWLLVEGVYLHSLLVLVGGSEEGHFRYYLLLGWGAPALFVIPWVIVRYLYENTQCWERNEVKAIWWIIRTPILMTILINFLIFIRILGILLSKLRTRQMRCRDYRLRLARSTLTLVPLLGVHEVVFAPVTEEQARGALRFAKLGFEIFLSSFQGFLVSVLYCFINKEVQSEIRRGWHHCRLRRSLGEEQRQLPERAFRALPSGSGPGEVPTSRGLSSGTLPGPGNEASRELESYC

Experiment [2] deals with human glucagon receptor (human) (UniProt P47871).
human glucagon receptor (human), sequence (P47871 26-477): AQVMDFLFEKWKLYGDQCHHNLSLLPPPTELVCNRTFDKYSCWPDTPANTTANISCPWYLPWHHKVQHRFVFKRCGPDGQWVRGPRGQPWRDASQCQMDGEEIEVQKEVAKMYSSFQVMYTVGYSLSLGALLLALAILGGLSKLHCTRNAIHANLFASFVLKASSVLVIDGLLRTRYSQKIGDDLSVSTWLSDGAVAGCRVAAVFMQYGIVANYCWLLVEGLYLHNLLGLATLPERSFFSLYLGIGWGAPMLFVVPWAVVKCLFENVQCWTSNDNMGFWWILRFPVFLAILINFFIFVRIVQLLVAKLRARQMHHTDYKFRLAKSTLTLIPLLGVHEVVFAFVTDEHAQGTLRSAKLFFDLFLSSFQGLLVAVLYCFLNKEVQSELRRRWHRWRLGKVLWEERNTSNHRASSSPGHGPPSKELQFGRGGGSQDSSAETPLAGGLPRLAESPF
Another experiment has as its target hGLP-1R (Homo sapiens, UniProt P43220).

hGLP-1R, sequence (P43220 24-463): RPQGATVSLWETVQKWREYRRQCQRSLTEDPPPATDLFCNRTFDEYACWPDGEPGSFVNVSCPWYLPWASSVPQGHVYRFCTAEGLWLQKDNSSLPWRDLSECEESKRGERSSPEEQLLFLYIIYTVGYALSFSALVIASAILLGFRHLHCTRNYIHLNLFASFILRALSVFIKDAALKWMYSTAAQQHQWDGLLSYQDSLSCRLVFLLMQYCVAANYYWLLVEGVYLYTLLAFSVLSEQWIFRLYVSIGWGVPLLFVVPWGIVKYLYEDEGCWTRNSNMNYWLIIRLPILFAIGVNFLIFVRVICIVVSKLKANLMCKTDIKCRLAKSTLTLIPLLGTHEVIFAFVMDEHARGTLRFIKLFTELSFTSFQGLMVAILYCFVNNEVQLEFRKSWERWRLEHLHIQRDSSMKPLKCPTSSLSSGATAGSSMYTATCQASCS

B1: Example 915 (peptide)
chain: YXQGTFTSDXSKXLDKKAQXAFIEYLIEXGPSSGAPPPSGS
modifications: non-natural residues, acylated Lys, C-terminal amide; synthetic construct; SITE 2: note = 2-Aminoisobutyric Acid; SITE 10: note = 3-(4-Pyridyl)-L-alanine; SITE 13: note = alpha-methyl-leucine; SITE 17: note = Lysine is chemically modified through conjugation of the epsilon-amino group of the Lysine side chain with (2-[2-(2-Amino-ethoxy)-ethoxy]-acetyl)
For B1, the cAMP Rel EC50 (1% HSA) amounted to 15.3 nM in experiment [1], 174 nM in experiment [2] and 226 nM with hGLP-1R.

B2: Example 920 (peptide)
chain: YXQGTFTSDXSQXLDKKAQXAFIEYLIEXGPSSGAPPPSGS
modifications: non-natural residues; C18 diacid-γGlu-e on Lys; C-terminal amide; synthetic construct; SITE 2: note = 2-Aminoisobutyric Acid; SITE 10: note = 3-(4-Pyridyl)-L-alanine; SITE 13: note = alpha-methyl-leucine; SITE 17: note = Lysine is chemically modified through conjugation of the epsilon-amino group of the Lysine side chain with D-Glutamic acid-(gamma-Glu)-CO-(CH2)16
For the molecule B2, the cAMP Rel EC50 (1% HSA) in experiment [1] amounted to 9.05 nM; in experiment [2], 1090 nM; with hGLP-1R, 322 nM.

B3: Example 922 (peptide)
chain: YXQGTFTSDXSQXLDKKAQXAFIEYLIEXGPSSGAPPPSGS
modifications: Lys acylated γGlu-C18 diacid; non-natural residues; C-amide; synthetic construct; SITE 2: note = 2-Aminoisobutyric Acid; SITE 10: note = 3-(4-Pyridyl)-L-alanine; SITE 13: note = alpha-methyl-leucine; SITE 17: note = Lysine is chemically modified through conjugation of the epsilon-amino group of the Lysine side chain with (gamma-Glu)-(D-Glutamic acid)2-CO-(CH2)
Regarding B3, the values for the cAMP Rel EC50 (1% HSA) (in experiment [1]; in experiment [2]; with hGLP-1R) were 6.39 nM, 1170 nM and 357 nM, respectively.

B4: Example 919 (peptide)
chain: YXQGTFTSDXSQXLDKKAQXAFIEYLIEXGPSSGAPPPSEE
modifications: non-natural residues; lipidated Lys; D-Glu; synthetic construct; SITE 2: note = 2-Aminoisobutyric Acid; SITE 10: note = 3-(4-Pyridyl)-L-alanine; SITE 13: note = alpha-methyl-leucine; SITE 17: note = Lysine is chemically modified through conjugation of the epsilon-amino group of the Lysine side chain with (2-[2-(2-Amino-ethoxy)-ethoxy]-acetyl)
As for B4, the cAMP Rel EC50 (1% HSA) was found to be 25.8 nM in experiment [1], 467 nM in experiment [2] and 454 nM with hGLP-1R.

B5: Example 910 (peptide)
chain: YXQGTFTSDXSQXLDKKAQXAFIEXLLEGGPSSGAPPPSGS
modifications: synthetic construct; SITE 2: note = 2-Aminoisobutyric Acid; SITE 10: note = 3-(4-Pyridyl)-L-alanine; SITE 13: note = alpha-methyl-leucine; SITE 17: note = Lysine is chemically modified through conjugation of the epsilon-amino group of the Lysine side chain with (2-[2-(2-Amino-ethoxy)-ethoxy]-acetyl)
B5: the results for the Relative cAMP EC50 (in experiment [1]; in experiment [2]; with hGLP-1R) were 0.111 nM, 9.76 nM and 1.49 nM, respectively. The cAMP Rel EC50 (1% HSA) in experiment [1] is 25.7 nM; in experiment [2], 2640 nM; with hGLP-1R it was 239 nM.

B6: Example 918 (peptide)
chain: YXQGTFTSDXSQXLDKKAQXAFIEYLIEXGPSSGAPPPSEG
modifications: non-natural residues; lipidated Lys AEEA-γGlu-C18 diacid; synthetic construct; SITE 2: note = 2-Aminoisobutyric Acid; SITE 10: note = 3-(4-Pyridyl)-L-alanine; SITE 13: note = alpha-methyl-leucine; SITE 17: note = Lysine is chemically modified through conjugation of the epsilon-amino group of the Lysine side chain with (2-[2-(2-Amino-ethoxy)-ethoxy]-acetyl)
Regarding B6, the cAMP Rel EC50 (1% HSA) in experiment [1] turned out to be 18 nM; in experiment [2] it was 590 nM; with hGLP-1R it was 484 nM.

B7: Example 914 (peptide)
chain: YXQGTFTSDXSKXLDKKAQXAFIEXLIEXGPSSGAPPPSGS
modifications: Aib, 4Pal, αMeL, Me4Pal; acylated Lys; C-terminal amide; synthetic construct; SITE 2: note = 2-Aminoisobutyric Acid; SITE 10: note = 3-(4-Pyridyl)-L-alanine; SITE 13: note = alpha-methyl-leucine; SITE 17: note = Lysine is chemically modified through conjugation of the epsilon-amino group of the Lysine side chain with (2-[2-(2-Amino-ethoxy)-ethoxy]-acetyl)
For the molecule B7, the cAMP Rel EC50 (1% HSA) in experiment [1] worked out at 5.94 nM; in experiment [2] it was 983 nM; with hGLP-1R it was 91.7 nM.

B8: Example 913 (peptide)
chain: YXQGTFTSDFSQXLDKKAQXAFIEXLIEXGPSSGAPPPSGS
modifications: non-natural residues; acylated Lys C18 diacid; C-term amide; synthetic construct; SITE 2: note = 2-Aminoisobutyric Acid; SITE 13: note = alpha-methyl-leucine; SITE 17: note = Lysine is chemically modified through conjugation of the epsilon-amino group of the Lysine side chain with (2-[2-(2-Amino-ethoxy)-ethoxy]-acetyl)-(gamma-Glu)-CO-(CH2) 16-CO2H; SITE 20: n
As to B8, the cAMP Rel EC50 (1% HSA) in experiment [1] turned out to be 5.62 nM; in experiment [2], 1140 nM; in the experiment with hGLP-1R, 258 nM.

B9: Example 921 (peptide)
chain: YXQGTFTSDXSQXLDKKAQXAFIEYLIEXGPSSGAPPPSGS
modifications: Aib, 4Pal, αMeL, Me4Pal; acylated Lys; C-terminal amide; synthetic construct; SITE 2: note = 2-Aminoisobutyric Acid; SITE 10: note = 3-(4-Pyridyl)-L-alanine; SITE 13: note = alpha-methyl-leucine; SITE 17: note = Lysine is chemically modified through conjugation of the epsilon-amino group of the Lysine side chain with (D-Glutamic acid)2-(gamma-Glu)-CO-(CH2)
As for B9, the cAMP Rel EC50 (1% HSA) was 12.4 nM in experiment [1], 2130 nM in experiment [2] and 261 nM in the experiment with hGLP-1R.

B10: Example 909 (peptide)
chain: YXQGTFTSDXSRXLDKKAQXAFIEXLLEGGPSSGAPPPSGS
modifications: synthetic construct; SITE 2: note = 2-Aminoisobutyric Acid; SITE 10: note = 3-(4-Pyridyl)-L-alanine; SITE 13: note = alpha-methyl-leucine; SITE 17: note = Lysine is chemically modified through conjugation of the epsilon-amino group of the Lysine side chain with (2-[2-(2-Amino-ethoxy)-ethoxy]-acetyl)
B10: the Relative cAMP EC50 in experiment [1] is 0.121 nM; in experiment [2] it was 6.82 nM; with hGLP-1R, 1.72 nM. In addition, the cAMP Rel EC50 (1% HSA) in experiment [1] was found to be 20.2 nM; in experiment [2], 1740 nM; with hGLP-1R, 243 nM.

B11: Example 923 (peptide)
chain: YXQGTFTSDXSQXLDKKAQXAFIEYLIEXGPSSGAPPPSGS
modifications: non-natural residues; C18 diacid-e-γGlu-e on Lys; C-terminal amide; synthetic construct; SITE 2: note = 2-Aminoisobutyric Acid; SITE 10: note = 3-(4-Pyridyl)-L-alanine; SITE 13: note = alpha-methyl-leucine; SITE 17: note = Lysine is chemically modified through conjugation of the epsilon-amino group of the Lysine side chain with D-Glutamic acid-(gamma-Glu)-D-Glutamic
In the case of B11, the cAMP Rel EC50 (1% HSA) in experiment [1] worked out at 18.5 nM; in experiment [2], 1840 nM; with hGLP-1R, 870 nM.

B12: Example 911 (peptide)
chain: YXQGTFTSDXSQXLDXKAQXAFIEXLLEGGPSSGAPPPSGS
modifications: acylated Lys AEEA-γGlu-C18 diacid; non-natural residues; C-terminal amide; synthetic construct; SITE 2: note = 2-Aminoisobutyric Acid; SITE 10: note = 3-(4-Pyridyl)-L-alanine; SITE 13: note = alpha-methyl-leucine; SITE 16: note = L-ornithine; SITE 17: note = Lysine is chemically modified through conjugation of the epsilon-amino group of the Lysine side chain with (2-[2-(2-
As to B12, the cAMP Rel EC50 (1% HSA) in experiment [1] was found to be 26.6 nM; in experiment [2], 2390 nM; with hGLP-1R it was 255 nM.

B13: Example 932 (peptide)
chain: YXQGTFTSDXSQXLDXKAQXAFIEXLLEGGPSSGAPPPSGS
modifications: non-natural residues; Lys acylated C18 diacid; C-terminal amide; synthetic construct; SITE 2: note = 2-Aminoisobutyric Acid; SITE 10: note = 3-(4-Pyridyl)-L-alanine; SITE 13: note = alpha-methyl-leucine; SITE 16: note = L-ornithine; SITE 17: note = Lysine is chemically modified through conjugation of the epsilon-amino group of the Lysine side chain with (2-[2-(2-
Turning to B13, the cAMP Rel EC50 (1% HSA) stood at 25 nM in experiment [1], 513 nM in experiment [2] and 249 nM with hGLP-1R.

B14: Example 912 (peptide)
chain: YXQGTFTSDFSKXLDKKAQXAFIEXLIEXGPSSGAPPPSGS
modifications: non-natural residues, AEEA-γGlu-C18 diacid lysine acylation, C-terminal amide; synthetic construct; SITE 2: note = 2-Aminoisobutyric Acid; SITE 13: note = alpha-methyl-leucine; SITE 17: note = Lysine is chemically modified through conjugation of the epsilon-amino group of the Lysine side chain with (2-[2-(2-Amino-ethoxy)-ethoxy]-acetyl)-(gamma-Glu)-CO-(CH2) 16-CO2H; SITE 20: n
Regarding B14, the values for the cAMP Rel EC50 (1% HSA) (in experiment [1]; in experiment [2]; with hGLP-1R) were 6.15 nM, 955 nM and 59.6 nM, respectively.

B15: Example 933 (peptide)
chain: YXQGTFTSDXSXXLDXKAQXAFIEXLLEGGPSSGAPPPSGS
modifications: synthetic construct; SITE 2: note = 2-Aminoisobutyric Acid; SITE 10: note = 3-(4-Pyridyl)-L-alanine; SITE 12: note = L-ornithine; SITE 13: note = alpha-methyl-leucine; SITE 16: note = L-ornithine; SITE 17: note = Lysine is chemically modified through conjugation of the epsilon-amino group of the Lys
Turning to B15, the Relative cAMP EC50 in experiment [1] was 0.259 nM; in experiment [2], 5.51 nM; in the experiment with hGLP-1R, 2.32 nM. Also, the cAMP Rel EC50 (1% HSA) is 35.1 nM in experiment [1], 1530 nM in experiment [2] and 557 nM in the experiment with hGLP-1R.
